What follows are sequences tested on Escherichia coli TOP10 (assay: shrunken log2 fold change of peptide-encoding DNA abundance (4.5 h post-induction vs induction); higher = less antimicrobial activity (less host growth inhibition)). Details: time post-induction: 4.5 h; library: site-saturation at positions 5, 18, 19, 20.
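Also: peptides expressed intracellularly from a pBAD plasmid library in pooled LB shake-flask culture, induced with 0.3% L-arabinose, DNA abundance read by NGS, three biological replicates, DESeq2 with apeglm shrinkage.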

Sequence	shrunken log2 fold change
RRIRCRPPRLPRPRPRPPLMPRP	0.121
RRIRRRPPRLPRPRPRPPTTPRP	0.445
RRIRVRPPRLPRPRPRPPWQPRP	0.44
RRIRHRPPRLPRPRPRPVHTPRP	-0.292
RRIRNRPPRLPRPRPRPFCRPRP	-0.223
RRIRTRPPRLPRPRPRPQMHPRP	-0.426
RRIRARPPRLPRPRPRPVQIPRP	-0.0414
RRIRFRPPRLPRPRPRPNAYPRP	-0.347
RRIRDRPPRLPRPRPRPTSGPRP	0.151
RRIRHRPPRLPRPRPRPIWAPRP	0.0355
RRIRQRPPRLPRPRPRPREEPRP	-0.00407
RRIRRRPPRLPRPRPRPMMEPRP	-0.0732
RRIRGRPPRLPRPRPRPRCPPRP	1.4
RRIRQRPPRLPRPRPRPKRPPRP	0.135
RRIRRRPPRLPRPRPRPQDAPRP	0.427
RRIRFRPPRLPRPRPRPYGWPRP	-0.0451
RRIRGRPPRLPRPRPRPLMQPRP	0.605
RRIRKRPPRLPRPRPRPEKNPRP	0.987
RRIRLRPPRLPRPRPRPFHRPRP	-0.246
RRIRTRPPRLPRPRPRPPESPRP	-0.0298
RRIRIRPPRLPRPRPRPVRMPRP	0.109
RRIRSRPPRLPRPRPRPHRCPRP	-0.209
RRIRVRPPRLPRPRPRPQFHPRP	-0.186
RRIRCRPPRLPRPRPRPPKSPRP	0.772
RRIRARPPRLPRPRPRPKYVPRP	-0.145

Sequence	shrunken log2 fold change
RRIRGRPPRLPRPRPRPGESPRP	0.584
RRIRVRPPRLPRPRPRPGVIPRP	0.0193
RRIRMRPPRLPRPRPRPQCLPRP	-0.108
RRIRFRPPRLPRPRPRPCGPPRP	0.243
RRIRSRPPRLPRPRPRPVFSPRP	-0.43
RRIRGRPPRLPRPRPRPYLCPRP	0.0395
RRIRARPPRLPRPRPRPVESPRP	0.986
RRIRCRPPRLPRPRPRPKQLPRP	-0.0668
RRIRCRPPRLPRPRPRPQREPRP	-0.0986
RRIRDRPPRLPRPRPRPLRAPRP	1.15
RRIRCRPPRLPRPRPRPKWLPRP	-0.0375
RRIRSRPPRLPRPRPRPGGWPRP	0.705
RRIRKRPPRLPRPRPRPTACPRP	0.108
RRIRERPPRLPRPRPRPRFLPRP	-0.18
RRIRFRPPRLPRPRPRPNDWPRP	-0.271
RRIRERPPRLPRPRPRPDKYPRP	-0.449
RRIRRRPPRLPRPRPRPWLNPRP	-0.0295
RRIRQRPPRLPRPRPRPPMKPRP	0.00136
RRIRERPPRLPRPRPRPYMHPRP	-0.232
RRIRNRPPRLPRPRPRPIQKPRP	-0.287
RRIRSRPPRLPRPRPRPILVPRP	0.0112
RRIRCRPPRLPRPRPRPFLCPRP	-0.786
RRIRTRPPRLPRPRPRPGAAPRP	0.509
RRIRDRPPRLPRPRPRPKRLPRP	-0.0451
RRIRYRPPRLPRPRPRPDFHPRP	-0.695

Sequence	shrunken log2 fold change
RRIRSRPPRLPRPRPRPCWIPRP	-0.0651
RRIRNRPPRLPRPRPRPTETPRP	-0.00947
RRIRQRPPRLPRPRPRPMLCPRP	-0.00319
RRIRKRPPRLPRPRPRPNFHPRP	0.676
RRIRNRPPRLPRPRPRPSGTPRP	-0.217
RRIRRRPPRLPRPRPRPRINPRP	0.125
RRIRLRPPRLPRPRPRPQTRPRP	0.08
RRIRQRPPRLPRPRPRPQPHPRP	0.158
RRIRRRPPRLPRPRPRPNSVPRP	-0.0617
RRIRIRPPRLPRPRPRPPAGPRP	0.518
RRIRVRPPRLPRPRPRPVAPPRP	0.242
RRIRYRPPRLPRPRPRPPALPRP	-0.1
RRIRYRPPRLPRPRPRPVEMPRP	-1.52
RRIRCRPPRLPRPRPRPAWVPRP	0.316
RRIRERPPRLPRPRPRPAVLPRP	0.034
RRIRRRPPRLPRPRPRPWHAPRP	0.279
RRIRIRPPRLPRPRPRPDGWPRP	-0.279
RRIRQRPPRLPRPRPRPDEFPRP	-0.0132
RRIRYRPPRLPRPRPRPLNYPRP	-0.0845
RRIRNRPPRLPRPRPRPTAIPRP	-0.072
RRIRIRPPRLPRPRPRPVWKPRP	0.154
RRIRPRPPRLPRPRPRPQNQPRP	-0.407
RRIRPRPPRLPRPRPRPYCWPRP	-0.473
RRIRMRPPRLPRPRPRPHKKPRP	0.0772
RRIRFRPPRLPRPRPRPVPYPRP	-0.693

Sequence	shrunken log2 fold change
RRIRYRPPRLPRPRPRPGHQPRP	0.0299
RRIRSRPPRLPRPRPRPWWGPRP	0.0289
RRIRFRPPRLPRPRPRPLGMPRP	-0.0132
RRIRIRPPRLPRPRPRPHRIPRP	0.0122
RRIRNRPPRLPRPRPRPSEVPRP	-0.0684
RRIRLRPPRLPRPRPRPDEIPRP	-0.0542
RRIRNRPPRLPRPRPRPFHIPRP	-0.0783
RRIRHRPPRLPRPRPRPSGDPRP	-0.107
RRIRERPPRLPRPRPRPGCLPRP	-0.017
RRIRTRPPRLPRPRPRPSEQPRP	0.0636
RRIRMRPPRLPRPRPRPGTAPRP	0.793
RRIRHRPPRLPRPRPRPQWLPRP	0.134
RRIRSRPPRLPRPRPRPRLCPRP	0.28
RRIRQRPPRLPRPRPRPEYHPRP	-0.141
RRIRGRPPRLPRPRPRPSENPRP	0.359
RRIRFRPPRLPRPRPRPRCSPRP	0.717
RRIRNRPPRLPRPRPRPVDVPRP	-0.122
RRIRERPPRLPRPRPRPYWRPRP	-0.0166
RRIRRRPPRLPRPRPRPGLVPRP	0.279
RRIRGRPPRLPRPRPRPFCMPRP	0.0902
RRIRRRPPRLPRPRPRPHAMPRP	0.191
RRIRLRPPRLPRPRPRPHVSPRP	0.00444
RRIRSRPPRLPRPRPRPDYNPRP	-0.622
RRIRERPPRLPRPRPRPFVIPRP	-0.478
RRIRYRPPRLPRPRPRPMRLPRP	-0.039

Sequence	shrunken log2 fold change
RRIRRRPPRLPRPRPRPLCRPRP	0.224
RRIRCRPPRLPRPRPRPPTHPRP	0.172
RRIRHRPPRLPRPRPRPNLHPRP	-0.759
RRIRQRPPRLPRPRPRPDDTPRP	0.00151
RRIRNRPPRLPRPRPRPHNDPRP	-0.395
RRIRIRPPRLPRPRPRPNTHPRP	-0.677
RRIRNRPPRLPRPRPRPDTIPRP	-0.145
RRIRERPPRLPRPRPRPGMAPRP	0.188
RRIRYRPPRLPRPRPRPWGAPRP	-0.315
RRIRKRPPRLPRPRPRPWVIPRP	-0.182
RRIRARPPRLPRPRPRPWEYPRP	-0.00494
RRIRSRPPRLPRPRPRPRFCPRP	0.23
RRIRTRPPRLPRPRPRPFGAPRP	0.334
RRIRSRPPRLPRPRPRPKSIPRP	-0.228
RRIRKRPPRLPRPRPRPYEEPRP	-0.0817
RRIRKRPPRLPRPRPRPNHDPRP	-0.0524
RRIRWRPPRLPRPRPRPPTNPRP	0.433
RRIRRRPPRLPRPRPRPVQLPRP	-0.0275
RRIRQRPPRLPRPRPRPEFWPRP	0.238
RRIRNRPPRLPRPRPRPVPWPRP	0.23
RRIRTRPPRLPRPRPRPYFTPRP	-1.11
RRIRERPPRLPRPRPRPSESPRP	-0.577
RRIRLRPPRLPRPRPRPHWFPRP	-0.08
RRIRMRPPRLPRPRPRPRFHPRP	0.142
RRIRSRPPRLPRPRPRPGYPPRP	-0.209

Sequence	shrunken log2 fold change
RRIRTRPPRLPRPRPRPCKPPRP	-0.996
RRIRPRPPRLPRPRPRPFMVPRP	-0.478
RRIRQRPPRLPRPRPRPMMAPRP	0.216
RRIRIRPPRLPRPRPRPMNVPRP	-0.122
RRIRLRPPRLPRPRPRPLESPRP	-0.212
RRIRTRPPRLPRPRPRPMRYPRP	-0.0953
RRIRIRPPRLPRPRPRPLRVPRP	0.291
RRIRSRPPRLPRPRPRPFFAPRP	0.205
RRIRGRPPRLPRPRPRPCPGPRP	-0.0819
RRIRYRPPRLPRPRPRPANTPRP	-0.589
RRIRLRPPRLPRPRPRPYIEPRP	-0.176
RRIRMRPPRLPRPRPRPVIPPRP	-0.259
RRIRNRPPRLPRPRPRPGNQPRP	-0.00674
RRIRWRPPRLPRPRPRPPPNPRP	0.928
RRIRERPPRLPRPRPRPIVLPRP	-0.579
RRIRDRPPRLPRPRPRPLRCPRP	0.177
RRIRERPPRLPRPRPRPDATPRP	0.645
RRIRDRPPRLPRPRPRPVKPPRP	-0.0934
RRIRCRPPRLPRPRPRPRVEPRP	0.0473
RRIRMRPPRLPRPRPRPRAVPRP	0.989
RRIRDRPPRLPRPRPRPWREPRP	0.00581
RRIRFRPPRLPRPRPRPMRYPRP	0.0824
RRIRMRPPRLPRPRPRPVDDPRP	-0.0248
RRIRDRPPRLPRPRPRPCHYPRP	-0.639
RRIRDRPPRLPRPRPRPISRPRP	-0.032
